Results as given in paper PMC7145319 (2019).

T1: MOG35-55 peptide on I-Ab (mouse)
T1 peptide: GWYRSPFSRVV

B1: EAE2-CD4 (TCR)
alpha TRAV12-1 TRAJ23 CDR3: CALRNYNQGKLIF
beta TRBV16 TRBJ1-4 CDR3: CASSLDQGWDERLFF
B2: EAE3-CD4 (TCR)
alpha TRAV14D-1 TRAJ43 CDR3: CAASGANNNNAPRF
beta TRBV3 TRBJ2-5 CDR3: CASSLEGHQDTQYF

Molecular target: T1, MOG35-55 peptide on I-Ab
Assay: activation reporter or marker

Row | Binder | binding result
1 | B1 | recognises
2 | B2 | recognises
